Laboratory results reported in the supplement of paper PMC9170038.

Legend:
[1] = test system: MS2 coat protein; assay: apparent KD of MS2 coat protein, switch OFF state (with FMN for OFF switches, without FMN for ON switches); designed switch direction (-1 OFF switch, 1 ON switch): -1; higher = weaker reporter binding; details: FMN input: 0 or 200 uM; Eterna round: R93 (includes R88 designs)
How it was run: (§1)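 SNAP-549-labelled MS2 coat protein was titrated onto designed RNA switches that had been transcribed on-chip from Illumina sequencing clusters. Amounts doubled from 0.7 or 1.5 nM to 3 µM in 100 mM Tris-HCl pH 7.5, 80 mM KCl, 4 mM MgCl2, with constant ligand or without. Apparent KD is the median per design of normalised cluster binding-curve fits.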

[2] = test system: MS2 coat protein; assay: apparent KD of MS2 coat protein, switch ON state; designed switch direction (-1 OFF switch, 1 ON switch): -1; higher = weaker reporter binding; details: FMN input: 0 or 200 uM; Eterna round: R93 (includes R88 designs)
How it was run: as §1

Sequence | apparent KD of MS2 coat protein [1] [nM] | apparent KD of MS2 coat protein [2] [nM]
AGAUAGUCAGGAUAUACGAAAAUGUAAAAAGAAGUGAAGGGACAUGAGGAUCACCCAUGUAGAAGGGACUAGAA [74%, Web mod - With 5 less C's] | 86.6 | 100
AGCAAGUAAGGAUAUGCGAAGUCAGGACACACACUGACAAAGCAGAAGGUACAUGAGGAUCACCCAUGUAAGCA [Mat - Exaclusion 4 - Eli mod - D62] | 14.9 | 21.8
AGCUAGUCAGGAUAUACGAACAAGACAAAAGACGAGAACGGACAUGAGGAUCACCCAUGUAGAAGGGACUAGCA [Diamond 8] | 28.8 | 25.7
AGCUAGUCAGGAUAUACGAACAUGUCAAAAGACGUGAAAGAACAUGAGGAUCACCCAUGUAGAAGGGACUAGCA [Mat - Exclusion 2 - JL-Eli mod - D48] | 18 | 19.4
AGCUAGUCAGGAUAUACGAACAUGUCAGAAGACGUGAAGGGACAUGAGGAUCACCCAUGUAGAAGGGACUAGCA [74%, Web mod - With 1 more G's] | 102 | 31.9
AGCUAGUGAGGAUAUACGAAUCUGUCAAAAGACGGAAGGGAACAUGAGGAUCACCCAUGUAGAAGGCACUAGCA [Web Mod 74% 6] | 23.2 | 31.9
AGGAAACAUGAGGAUCACCCAUGUGAGGAUAUACAAAAGAAAAGAAAAGAAAGAAGAAGUAGAAGGUACAAGAA [Djedkare Isesi] | 24.7 | 21.7
AGGAAACAUGAGGAUCACCCAUGUGAGGAUAUUCAAAAGAAAAGAAAAGAAAGAAGAAGAAGAAGGUACAAGAA [Neferefre] | 29.9 | 28.3
AGGCAGACAGGAUAUACUUGGGCAGCCAGUAUGGUAAUAUAACAUGAGGAUCACCCAUGUAGAAGGGUCAGAAA [JR_Exc002_Sub210] | 88.4 | 94.3
AGGCGGGUAGGAUAUGCGUACUGACGGGAAAACUGAAUGGUACAUGAGGAUCACCCAUGUAGAAGGGCUCUGAA [Dora Explored 23 - Jieux - Exclusion 2] | 111 | 67.1
AGGGAGUGAGGAUAUACGAAAUAAAAAGAAGGAAAAAAAGAGUAGAAGGCACAUGAGGAUCACCCAUGUGAGAA [milkweed 12] | 20.6 | 20.7
AGGGUACAUGAGGAUCACCCAUGUUAGGAUAUACAAAAGAAAAGAAAAGAAAGAAGAAGUAGAAGGGACAAGAA [Teti] | 59.1 | 45.5
AGGUAGUCAGGAUAUGCGUGAAGAAUAAAACAAAUAACAACGCAGAAGGGACAUGAGGAUCACCCAUGUUAAGA [May 48] | 31.7 | 36.1
AGGUUGUCAGGAUAUGCGUGAAGAAUAAAACAAAUAACAACGCAGAAGGGACAUGAGGAUCACCCAUGUAACCA [May 53] | 27.2 | 35.6
AGUCGGCGAGGAUAUACAUGAGGAUCACCCAUGUGAGAGAAAAAAGUGAGUCAGAAAAGUAGAAGGCGCUGACA [JL Lego Mod 4] | 41.6 | 63.4
AGUGAGUCAGGAUAUUAGUGAAGAAUAAAAGAAAUAACAACUAAGAAGGGACAUGAGGAUCACCCAUGUACACA [May 58] | 20.9 | 26
AGUUGGCGAGGAUAUACAUGAGGAUCACCCAUGUAAAAUAAAUAAAAAAUAAAAGGGAGUAGAAGGCGCUGACA [73%, Moding Norbert Elias, 16] | 53.4 | 41.9
AGUUGGCGAGGAUAUACAUGAGGAUCACCCAUGUGAGAGAAAAAAGUGAAAAAGAAAAGUAGAAGGCGCUGACA [73%, Moding Norbert Elias, 3] | 195 | 47.9
AGUUGGCGAGGAUAUACAUGAGGAUCACCCAUGUGAGAGAAAAAAGUGAGAAAGAAAAGUAGAAGGCGCUGACU [salish99-ex3-06] | 307 | 46.4
AGUUGGCGAGGAUAUACAUGAGGAUCACCCAUGUGAGAGAAAUAAGUGAGAAAGAAAAGUAGAAGGCGCUAACA [JL Lego Mod 18] | 164 | 53.5
AGUUGGCGAGGAUAUACAUGAGGAUCACCCAUGUGAGAGUAAGAAGUGAGAAAGAGAAGUAGAAGGCGCUGACA [Ruby 55] | 220 | 46.5
AUAAACAGAGGAUAUACGCGGAUUAUUGAAAUUAUUGAUUCACAUGAGGAUCACCCAUGUAGAAGGCUGGAAAA [LROPPY Exclusion 2 - v04_doubled Us] | 124 | 35.7
AUAAACGGAGGAUAUACAUGAGGAUCACCCAUGUAAAUAAAUAGGAGAGCCACAAUAAGUAGAAGGUCGAAUAA [JR_Exc003_Sub010] | 32.4 | 35.6

Sequence | apparent KD of MS2 coat protein [1] [nM] | apparent KD of MS2 coat protein [2] [nM]
AUAAAGUCAGGAUAUGUAAAAAUAACGAAAGUUAUAAAUAAACAGAAGGGACAUGAGGAUCACCCAUGUGGAAU [Meechl MS2 EX4 62% 3] | 75 | 54.2
AUAAUCCUAGGAUAUACAUGGAUAUACAUUCAUGUGGACCUACAUGAGGAUCACCCAUGUAGAAGGAGGAUGAA [Mat - Same state - Mayanna Mod - D138] | 39.5 | 35
AUAAUGCGAGGAUAUACAUGAGGAUCACCCAUGUAAAUAAAUAGGAGAGCCACAUUAAGUAGAAGGUGCAUUAA [JR_Exc003_Sub501] | 84.7 | 32.8
AUAGGCCUAGGAUAUACAUGAGGAUCACCCAUGUUAACACUUCAAUCAAGUUAAUAGUGUAGAAGGAGGAAUAA [JR_Exc003_Sub308] | 31.5 | 29.3
AUAGUACAUGAGGAUCACCCAUGUCAGGAUAUUGGAUAUGACAUAAAAAAAAUGUUAACGAGAAGGGACUAUAA [EX1 Malc#16] | 27.7 | 29.2
AUAUAACAUGAGGAUCACCCAUGUCAGGAUAUCGAACCCAACACAACCAAAAUGUCGGCGAGAAGGGACAAAAA [Default title] | 22.6 | 27.5
AUCAUGUAAGGAUAUGUAAGAAAAGAAAAGAAAGAAAAGAAACAGAAGGUACAUGAGGAUCACCCAUGUAAGAA [EteRNA is fun!] | 34.5 | 26.5
AUCAUGUAAGGAUAUUCAAGAAAAGAAAAGAAAGAAAAGAAGAAGAAGGUACAUGAGGAUCACCCAUGUAAGAA [EteRNA is fun!] | 64.2 | 42.5
AUGUACCUAGGAUAUACAUGAGGAUCACCCAUGUUCCGGGAGCAAUCAAGUUAAUAUUGUAGAAGGAGGUGAAA [JR_Exc003_Sub314] | 28.4 | 16
AUGUAGGUAGGAUAUGCAUAGAUACAGAUUCAUGUGGAACUACAUGAGGAUCACCCAUGUAGAAGGACCUAAAA [Mat - Same state - Mayanna Mod - D126] | 30 | 20.2
CACGUACAUGAGGAUCACCCAUGUUAGGAUAUGCCGGGUAAGAGAAAACUAAAAAUCCGCAGAAGGGACGAAAC [Bilbo Confounded 15 - Jieux - Exclusion 1] | 33.8 | 32
CAGUACUGAGGAUAUACAUGAGGAUCACCCAUGUGAAAAAGCUACGAAAGUAGCAAAUGUAGAAGGCAGUACUG [Ex3: 806] | 273 | 28.9
CAUAGGCGAGGAUAUACAUGAGGAUCACCCAUGUAAGGAAACCUGGCAGACUCAGAAUGUAGAAGGCGCACUGA [Ex3_Neo] | 32.5 | 17.1
CCCAUGUCAGGAUAUCAGUAGUAAAAAAAAAAAAUUACUACUGAGAAGGGACAUGAGGAUCACCCAUGUCACUU [EX4 320: Super Stable 20] | 53.2 | 74.9
CGGAGGAAAGGAUAUACACAAUAAAAGAAGUGAUCCUUGAGACAUGAGGAUCACCCAUGUAGAAGGUUCACUGA [Zaza] | 15.9 | 21.9
CGUUGGCGAGGAUAUACAUGAGGAUCACCCAUGUGAGAGAAAAAAGUGAGAAAGAAAAGUAGAAGGCGCUGACU [salish99-ex3-11] | 132 | 43.6
CUAAAGCGAGGAUAUACAAUAAAAGGGAAUAAGGGAAAAAAACAUGAGGAUCACCCAUGUAGAAGGCGCCGAAA [Ex 2 #1] | 26.5 | 25.6
CUCAAGUAAGGAUAUACAAGAAAAGAAGAGAAAGAAAAGAAGUAGAAGGUACAUGAGGAUCACCCAUGUAAGAA [EteRNA is fun!] | 22.2 | 26.7
CUCAAGUAAGGAUAUCAAAGAAAAGAAGAGAAAGAAAAGAAUGAGAAGGUACAUGAGGAUCACCCAUGUAAGAA [EteRNA is fun!] | 23 | 35.2
CUCAAGUGAGGAUAUCAGUAGUAAAAAAAUAAAAUUACUACUGAGAAGGCACAUGAGGAUCACCCAUGUGCCAA [EX4 335: Super Stable 35] | 15.2 | 14.7
CUCAAGUUAGGAUAUGGAAGAAAAGAAGAGAAAGAAAAGAACCAGAAGGAACAUGAGGAUCACCCAUGUAAGAA [EteRNA is fun!] | 62.7 | 58.1
CUCGUGUUAGGAUAUGGAUAGCCGUUUGACGAGCGAGGGCACUAGAAGGAACAUGAGGAUCACCCAUGUAAAAA [Velema] | 28.1 | 29.4
